Columns and labels:
[1] = pH 1.3
Pepsin (Gastric) = conditions: pH 1.3
Pancreatin = conditions: pH 7.5
Chymotrypsin = conditions: pH 6
albino mice = assay: Blood glucose after oral glucose challenge in fasted mice (Example IV); format: in vivo
Experimental: Comparative studies using bovine insulin were conducted on polymer-insulin conjugates and on native insulin to determine their relative stability and activity in animal models. In the animal studies, the efficacy of the polymer-insulin in lowering the blood level was compared to that of native insulin. Female and male albino mice averaging 25 g in weight were fasted overnight and used in groups of five for each treatment conducted in several phases over a period of two days. […] Conjugate 1) Group 3, 100 μg/kg, orally); or Conjugate 1 (Group 4, 100 μg/kg, subcutaneously) at time 0. […] Animals were fasted overnight before treatment and for the duration of the study. All test materials were prepared in phosphate buffered saline, pH 7.4. […] At the scheduled sample time blood was collected from the tail vein and immediately analyzed for glucose content using a One Touch Digital Glucose Meter (Life Scan).

[2] = Closed loop assay, serum insulin by ELISA; format: in vivo, Sprague-Dawley rats; conditions: 10 and 30 milligrams of insulin per kilogram
Experimental: FIG. 3 is a graph of ELISA assay results for native insulin in the NRS pool of various Sprague-Dawley rats, showing insulin concentration as a function of time, prior to and after dosing with insulin, at respective doses of 10 milligrams of insulin per kilogram of body weight, and at 30 milligrams of insulin per kilogram of body weight. Two rats were dosed at 10 milligrams insulin per kilogram of body weight (Rats C and I) and two rats were dosed at 30 milligrams insulin per kilogram of body weight (Rats K and L).
FIG. 4 is a graph of ELISA assay results for insulin in the NRS pool of various Sprague-Dawley rats, showing insulin concentration as a function of time, prior to and after dosing with insulin, at respective doses of 10 milligrams of insulin per kilogram of body weight, and at 30 milligrams of insulin per kilogram of body weight, wherein the insulin is administered as a conjugate, insulin-hexyl-PEG7-OMe.

pancreatomized dogs = assay: Blood glucose after oral microemulsion insulin formulation; format: in vivo; conditions: 1.0 mg/kg orally, emulsion formulation (native Zinc insulin or Hex-insulin mixture)
Experimental: (§1) FIG. 6 is a graph of insulin and blood glucose levels as a function of time, after dosing of canine subjects with a microemulsion insulin formulation representative of the present invention. The respective curves shown in the graph include native Zinc insulin; glucose ( ), hex-insulin; glucose (▪); native Zinc insulin; insulin (Δ); and hex-insulin; insulin (Δ).
(§2) Glucose data were normalized to the baseline glucose levels (0 minutes). Dogs were dosed orally with one of two emulsion formulations (native Zinc insulin or Hex-insulin mixture). The dose was adjusted to 1.0 mg/kg. Samples were collected at 30 minute intervals. The data were corrected for Hex-insulin reactivity in the BMI ELISA and Pharmacia RIA tests.

[3] = Serum insulin after oral microemulsion insulin formulation; format: in vivo, dogs; conditions: 1.0 mg/kg orally
Experimental: as §1, §2

| Substance | Stability, Acid [1] [h] | Stability, Pepsin (Gastric) 1.5 units/mL (Pepsin (Gastric)) [min] | Stability, Pancreatin 6 units/mL (Pancreatin) [min] | Stability, Chymotrypsin (Chymotrypsin) [min] | Duration of hypoglycemic effect (albino mice; 100 μg/kg subcutaneously) [h] | Blood glucose levels (albino mice; 100 μg/kg subcutaneously, 30 minute time point, control = Group 5, untreated) | Blood glucose levels lowered to a maximum of (albino mice; 1.5 mg/kg orally by gavage) | Time of maximum response after treatment (albino mice; 1.5 mg/kg orally by gavage) [min] | Glucose levels after four hours (albino mice; Group 2, 1.5 mg/kg orally) | Insulin concentration over the timecourse [2] | Glucose return to baseline by (pancreatomized dogs) [min] | Time of maximal glucose depression (pancreatomized dogs) [min] | Time of peak insulin immunoreactivity in the serum after dosing ([3]; emulsion formulation (native Zinc insulin or Hex-insulin mixture)) [min] | Serum insulin return to baseline ([3]; emulsion formulation, in all cases) [min] |
| --- | --- | --- | --- | --- | --- | --- | --- | --- | --- | --- | --- | --- | --- | --- |
| Insulin (Na): native (bovine) insulin, sodium form, comparator in stability studies | 153 | 9 | 77 | 13 | – | – | – | – | – | – | – | – | – | – |
| native insulin: unconjugated insulin comparator: bovine insulin in Example IV, native Zinc insulin emulsion in Example XIX | – | – | – | – | 3.5 | approximately 30 % of control | 60 % of control | 30 | remained above control | flat throughout the timecourse | 360 to 480 | 9 to 180 | ≤ 30 | 120 to 240 |
